B1: IL-4: cytokine used for stimulation of T cells (protein, UniProt P05112 25-153, looked up)
Interleukin-4: HKCDITLQEIIKTLNSLTEQKTLCTELTVTDIFAASKNTTEKETFCRAATVLRQFYSHHEKDTRCLGATAQQFHRHKQLIRFLKRLDRNLWGLAGLNSCPVKEANQSTLENFLERLKTIMREKYSKCSS
B2: IFN-γ: cytokine used for stimulation of T cells (protein, UniProt P01579 24-161, looked up)
Interferon gamma: QDPYVKEAENLKKYFNAGHSDVADNGTLFLGILKNWKEESDRKIMQSQIVSFYFKLFKNFKDDQSIQKSVETIKEDMNVKFFNSNKKKRDDFEKLTNYSVTDLNVQRKAIHELIQVMAELSPAAKTGKRKRSQMLFRG

Key:
MAL = test: Expression induction experiment with cytokines in cultured T cells derived from peripheral blood (MAL mRNA); assay type: cell-based, human; conditions: 0-48 h, IL-4 2 ng/ml, IL-12 2 ng/ml, IFN-γ 200 ng/ml, IFN-α 100 IU/ml
Experimental: Effects of various cytokines on the MAL expression level were examined. T cells were separated from the peripheral blood sample from an normal healthy subject using the method described in Example 6, and stimulated with the anti-CD3 antibody to induce the cell growth. That is, on a culture plate which was surface-treated with the anti-CD3 antibody, the separated T cells were cultured in a 5% FCS-containing RPMI1640 medium (1 mM sodium pyruvate, 2 mM L-glutamine, 10 U/ml penicillin, 100 μg/ml streptomycin, and 200 U/ml IL-2) at a density of 5×10^5 cells/ml for 5 days. Grown T cells were diluted with the same medium to a density of 5×10^5 cells/ml, and cultured on a non-surface treated plate for further 3 days. The resulting cells were washed with the medium without IL-2, suspended in the medium (without IL-2) supplemented with cytokine for the stimulation at a density of 1×10^6 cells/ml, and cultured under the stimulation for a predetermined period of time. Cells were then collected to prepare RNA. Cytokines used are shown below:
The same medium as that described in Example 3 was used. During the cultivation for 0˜48 h, mRNA for MAL was induced in the case of stimulation with IL-4. […] Induction of MAL expression with IL-4 may indicate the association of MAL with the action of IL-4 in allergic diseases. For example, MAL may act during the differentiation process of T cell into Th2, and also may associate with the production of Th2 cytokines, IL-4, IL-5, and IL-10.

MAL protein [1] = test: Induction of MAL protein expression in Jurkat cell line (Western blotting of raft fraction); assay type: cell-based, human; conditions: Jurkat cells, IL-4 2 ng/ml, 32 hours, raft fractions 4, 5, 6
Experimental: Cell lysate was prepared from Jurkat cells that had been stimulated with IL-4 (2 ng/ml) for 32 hours, and subjected to sucrose density gradient centrifugation according to the method of Fernando Martin-Belmonte et al. (Fernando Martin-Belmonte, Rosa Puertollano, Jaime Millan, and Miguel A. Alonso. The MAL Proteolipid Is Necessary for the Overall Apical Delivery of Membrane Protein in the Polarized Epithelial Madin-Darby Canine Kidney and Fischer Rat Thyroid Cell Lines. Molecular Biology of the Cell 11, 2033-2045, June 2000) to separate the raft fraction (fractions 4, 5, and 6). Proteins in each fraction were separated by SDS polyacrylamide gel electrophoresis, and analyzed by Western blotting using antibody against MAL peptide or that against LAT (linker for activation of T cells).

MAL protein [2] = test: Induction of MAL protein expression in human peripheral blood T-cells (Western blotting of raft fraction); assay type: cell-based; conditions: IL-4 2 ng/ml, 41 hours, fraction 4
Experimental: Human peripheral blood cells that had been cultured and propagated were similarly stimulated as in Example 7 with IL-4 (2 ng/ml) for 41 hours, and then the MAL protein expression in the raft fraction (fraction 4) was examined by Western blotting. As a result, the induction of the MAL protein expression by IL-4 was confirmed also in the raft of human peripheral blood T-cells (FIG. 8).

Molecule | induction of mRNA for MAL (MAL) | expression of MAL protein in the raft (MAL protein [1]) | MAL protein expression in the raft fraction (MAL protein [2])
IFN-α | No such action was observed |  | 
B1 | induced | increased | induction
B2 | No such action was observed |  | 

Reference: patent US20030148312A1, “Method for testing for allergic disease” (NATIONAL CENTER FOR CHILD HEALTH AND DEVELOPMENT, priority 2001, published 2003)
